Results from US20060269542A1, “Immunoliposome composition for targeting to a HER2 cell receptor” (priority 2005, published 2006).
Values after ≈ are worked out from the molar mass of the structure shown.

B1: anti-Her2 immunoliposome formulation with scFv/liposome ratio of 5 (scFv)
scFv: QVQLVESGGGLVQPGGSLRLSCAASGFTFRSYAMSWVRQAPGKGLEWVSAISGRGDNTYYADSVKGRFTISRDNSKNTLYLQMNSLRAEDTAVYYCAKMTSNAFAFDYWGQGTLVTVSSGGGGSGGGGSGGGGSQSVLTQPPSVSGAPGQRVTISCTGSSSNIGAGYGVHWYQQLPGTAPKLLIYGNTNRPSGVPDRFSGFKSGTSASLAITGLQAEDEADYYCQSYDSSLSGWVFGGGTKLTVLG
modifications: terminal cysteine coupled through a thioether linkage to maleimide-PEG-DSPE
B2: Anti-HER2 Immunoliposomes (7.5:1) (scFv)
scFv: B1 scFv
modifications: terminal cysteine coupled through a thioether linkage to maleimide-PEG-DSPE
notes: On average 7.5 scFv per liposome; also called 7.5:1 immunoliposome formulation; immunoliposomes containing 7.5 antibodies per liposome
B3: Anti-HER2 Immunoliposomes (15:1) (scFv)
scFv: B1 scFv
modifications: terminal cysteine coupled through a thioether linkage to maleimide-PEG-DSPE
notes: On average 15 scFv per liposome; also called 15:1 immunoliposome formulation; immunoliposomes with 15 antibodies per liposome
B4: Anti-HER2 Immunoliposomes (30:1) (scFv)
scFv: B1 scFv
modifications: terminal cysteine coupled through a thioether linkage to maleimide-PEG-DSPE
notes: On average 30 scFv per liposome; also called 30:1 immunoliposome formulation; F5 scFv immunoliposome
B5: Anti-HER2 Immunoliposomes (45:1) (scFv)
scFv: B1 scFv
modifications: terminal cysteine coupled through a thioether linkage to maleimide-PEG-DSPE
notes: On average 45 scFv per liposome; also called 45:1 immunoliposome formulation; F5 scFv immunoliposome
B6: F5: single chain antibody fragment (scFv), 251 amino acids, binds extracellular domain of HER2 receptor, SEQ ID NO: 2 (protein, listed as Homo sapiens)
scFv: B1 scFv

Columns and labels:
[1] = tested on: SK-BR-3 human breast carcinoma cells; assay: cells; type: cell-based; details: 10-min exposure, then 72 hours growth, read-out: IC50 (doxorubicin concentration resulting in 50% cell growth inhibition)
Method: SK-BR-3 human breast carcinoma cell line was purchased from American Tissue Type Culture Collection (ATCC, Manassas, Va.). Cells were maintained in in vitro culture in McCoy's 5A modified medium supplemented with 10% fatal bovine serum and were maintained in a humidified incubator at 37° C.
Cells were exposed for 10 minutes to doxorubicin (1.8 mg/mL) in free form, doxorubicin entrapped in PEGylated liposomes (2.06 mg/mL), or an immunoliposome formulation having 2 antibodies per liposome (1.86 mg/mL), 5 antibodies per liposome (2.12 mg/mL), 7.5 antibodies per liposome (1.99 mg/mL), or 15 antibodies per liposome (2 mg/mL).
Log-phase SK-BR-3 breast cancer cells were harvested using Versene (1:5000), resuspended in growth media at concentration of 5×10^4 cells/mL. […] At the end of incubation, the amount of viable cells was determined using the Promega CellTiter 96® Aqueous One Solution Cell Proliferation Assay (a tetrazolium based colorimetric method for determining the number of viable cells in proliferation, Madison, Wis.). […] The plates were then incubated for 3-4 hours after which absorbance was recorded at 490 nm with a microplate reader. Cell viability was calculated as % of untreated control using the formula: % Viability=(A−A0)/(A100−A0)×100% where A is the measured absorbance, A0 is the absorbance of the blanks, and A100 is the absorbance of the wells with untreated cells. […]

HER2 receptor [2] = target: T1, HER2 receptor (human, UniProt P04626 23-1255); assay: cell-based or functional assay
HER2 receptor [3] = target: T1, HER2 receptor; assay: 4 h incubation of immunoliposomes with SK-BR-3 cells (IHC 3+), wash, lysis, doxorubicin fluorescence
Method: SK-BR-3 or MCF-7 cells at 1.5×10⁵ cells/0.5 mL of growth medium per well were added to a 24-well plate. After overnight incubation for attachment and acclimation, cells were treated with immunoliposomes ([…], 15:1, 30:1, and 45:1 anti-HER2 antibodies:liposome), or liposomes at 0.015 mg/mL in 0.5 mL growth media/well in duplicates. The 24-well plates were then placed on a rotating platform inside the incubator with rotation at 40-60 rpm at 37° C., 5% CO₂, and 100% humidity for 4 hours. After incubation, cell medium were aspirated and cells were washed four times with Hank's Balanced Salt Solution (HBSS). After this, cells were lysed by adding 0.1 mL of 1% Triton X-100 to each well. The plates were swirled to mix and placed on a rotating platform for 15 minutes at room temperature. During this step, cells detached from the bottom of the plate and the cell nuclei formed visible clumps. Acid isopropanol (1.0 mL) were added to the wells containing the Triton X-100 solution and mixed by swirling or pipetting up and down until the visible clumps disappeared.
Doxorubicin content in the cell lysates was measured by a spectrofluorometer using an excitation wavelength of 470 nm and an emission wavelength of 590 nm. The spectrofluorometer settings were as follows: slit width 2 nm, integration time 1 second, photomultiplier voltage 950 V, and single wavelength acquisition mode. Fluorescence of the background cell lysate was subtracted and the amount of doxorubicin in the cell lysates was determined from the concurrently measured standards (10, 25, 50, 100, 250, 500, 1000, and 2500 ng of doxorubicin per sample) fit to a standard curve using quadratic polynomial regression. Cell uptake of doxorubicin was determined by interpolation from the standard curve.

[4] = target: extracellular domain of HER2 receptor (Homo sapiens, UniProt P04626); details: read-out: HER2 binding affinity (Kd); cited from earlier work

| Molecule | IC50 (cytotoxicity, SK-BR-3 cells, 10-min exposure, doxorubicin concentration) (HER2 receptor [2]) | Doxorubicin (pg/cell), cellular binding/uptake (HER2 receptor [3]) | other results |
| --- | --- | --- | --- |
| COc1cccc2c1C(=O)c1c(O)c3c(c(O)c1C2=O)C[C@@](O)(C(=O)CO)C[C@@H]3O[C@H]1C[C@H](N)[C@H](O)[C@H](C)O1 [free doxorubicin, doxorubicin] | – | – | IC50 [1]: ~9.5 µg/mL (≈ 17.5 µM) |
| B1 | ~30 µg/mL | – | – |
| B2 | ~16 µg/mL | 6.02 pg/cell | – |
| B3 | ~3.9 µg/mL | 8.35 pg/cell | – |
| B4 | – | 6.66 pg/cell | – |
| B5 | – | 4.39 pg/cell | – |
| B6 | – | – | Kd [4]: 150 to 300 nM |
